The record followed here is patent publication US20210061914A1 (published 2021).

The target in assay [1] is HLA-B*35:01_… (HLA-PEPTIDE target G5), soluble (human, enzymatically biotinylated (BirA)). Put plainly: scFv PPE ELISA.
Assay [2] deals with HLA-A*01:01_… (HLA-PEPTIDE target G10), soluble (human, enzymatically biotinylated (BirA)). Put plainly: BLI (Octet), biotinylated pHLA on streptavidin sensor, Fab in solution, 1:1 model. (BLI is a label-free optical method that tracks binding on a fibre tip over time.)
The target of assay [3] is HLA-A*02:01_… (HLA-PEPTIDE target G8), soluble (human, enzymatically biotinylated (BirA) for screening and BLI). Described as above.

Where a chain is given by its changes, count along the chain named.

B1: scFv G5-P3G01 (scFv, V domains shown)
VH: QVQLVQSGAEVKKPGASVKVSCKASGGTFSGYLVSWVRQAPGQGLEWMGWINPNSGGTNTAQKFQGRVTMTRDTSTSTVYMELSSLRSEDTAVYYCAREGYGMDVWGQGTTVTVSS
VL: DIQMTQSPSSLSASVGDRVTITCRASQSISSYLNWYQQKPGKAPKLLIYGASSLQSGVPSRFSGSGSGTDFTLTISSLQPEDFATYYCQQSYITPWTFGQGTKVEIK
With B1, the “fold selective binding, target pHLA vs minipool of negative control pHLAs” value (from here on “fold selective binding, target pHLA”) in assay [1] is not below 3 fold.

B2: Fab clone R3G10-P1B07 (Fab, V domains shown)
VH: QVQLVQSGAEVKKPGASVKVSCKASGYTFTSYYMHWVRQAPGQGLEWMGIIHPGGGTTSYAQKFQGRVTMTRDTSTSTVYMELSSLRSEDTAVYYCARDKVYGDGFDPWGQGTLVTVSS
VL: DIQMTQSPSSLSASVGDRVTITCRASQSISRWLAWYQQKPGKAPKLLIFDASRLQSGVPSRFSGSGSGTDFTLTISSLQPEDFATYYCQQAEAFPYTFGQGTKVEIK
notes: Fab made in HEK293
For the molecule B2, in assay [2], the dissociation constant Kd was 37.5 nM, the dissociation rate constant (koff) worked out at 0.00615 s⁻¹ and the kon came out at 165000 M⁻¹ s⁻¹.

B3: Fab clone R3G8-P2E04 (Fab, V domains shown)
VH: QVQLVQSGAEVKKPGSSVKVSCKASGGTFSSYGVSWVRQAPGQGLEWMGWISPYSGNTDYAQKFQGRVTITADESTSTAYMELSSLRSEDTAVYYCARGLYYMDVWGKGTTVTVSS
VL: DIQMTQSPSSLSASVGDRVTITCRASQSISSWLAWYQQKPGKAPKLLIYDASNLETGVPSRFSGSGSGTDFTLTISSLQPEDFATYYCQQSYSTPLTFGGGTKLEIK
notes: Fab made in HEK293
In assay [3], B3 displayed a Kd of 286 nM, an off-rate (koff) of 0.0789 s⁻¹ and an on-rate (kon) of 545000 M⁻¹ s⁻¹.

B4: scFv G5-P4B02 (scFv, V domains shown)
VH: QVQLVQSGAEVKKPGASVKVSCKASGYTFTGYYMHWVRQAPGQGLEWMGWMNPNIGNTGYAQKFQGRVTMTRDTSTSTVYMELSSLRSEDTAVYYCARGIADSGSYYGNGRDYYYGMDVWGQGTTVTVSS
VL: DIVMTQSPDSLAVSLGERATINCKTSQSVLYRPNNENYLAWYQQKPGQPPKLLIYQASIREPGVPDRFSGSGSGTDFTLTISSLQAEDVAVYYCQQYYTTPYTFGQGTKLEIK
notes: scFv
For the molecule B4, the “fold selective binding, target pHLA” value in assay [1] is not below 3 fold.

B5: Fab clone R3G8-P2C10 (Fab, V domains shown)
VH: QVQLVQSGAEVKKPGASVKVSCKASGYTFTSYYMHWVRQAPGQGLEWMGWINPYSGGTNYAQKFQGRVTMTRDTSTSTVYMELSSLRSEDTAVYYCAKGGIYYGSGSYPSWGQGTLVTVSS
VL: DIQMTQSPSSLSASVGDRVTITCRASQDVSTWLAWYQQKPGKAPKLLIYAASSLQSGVPSRFSGSGSGTDFTLTISSLQPEDFATYYCQQSHSTPQTFGQGTKVEIK
notes: Fab made in HEK293
In assay [3], B5 returned a Kd of 17.7 nM, a koff of 0.0013 s⁻¹ and an on-rate constant (kon) of 75000 M⁻¹ s⁻¹.

B6: Fab clone G8-P1C11 (Fab, V domains shown)
VH: QVQLVQSGAEVKKPGASVKVSCKASGGTLSSYPINWVRQAPGQGLEWMGWISTYSGHADYAQKLQGRVTMTRDTSTSTVYMELSSLRSEDTAVYYCARSYDYGDYLNFDYWGQGTLVTVSS
VL: B5 VL with R24Q, V29I, T31N, W32Y, A34N, H92Y, T94I, Q96P, Q100G, E105D
notes: Fab made in HEK293; also called R3G8-P1C11
As for B6, in assay [3], the Kd turned out to be 178 nM, the koff was determined as 0.0338 s⁻¹ and the kon was 190000 M⁻¹ s⁻¹.

B7: scFv G5-P3G08 (scFv, V domains shown)
VH: QVQLVQSGAEVKKPGASVKVSCKASGYIFRNYPMHWVRQAPGQGLEWMGWINPDSGGTKYAQKFQGRVTMTRDTSTSTVYMELSSLRSEDTAVYYCARDNGVGVDYWGQGTLVTVSS
VL: B5 VL with D28G, V29I, T31N, W32Y, H92Y, S93I, Q96Y, V104L
notes: scFv
B7: the “fold selective binding, target pHLA” value in assay [1] is not below 3 fold.

B8: Fab clone R3G10-P4E07 (Fab, V domains shown)
VH: QVQLVQSGAEVKKPGSSVKVSCKASGYTFTGYYMHWVRQAPGQGLEWMGRISPSDGSTTYAPKFQGRVTITADESTSTAYMELSSLRSEDTAVYYCARDMGDAFDIWGQGTTVTVSS
VL: not shown
notes: Fab made in HEK293
In the case of B8, in assay [2], the Kd was found to be 428 nM, the koff was 0.111 s⁻¹ and the on-rate constant (kon) was determined as 477000 M⁻¹ s⁻¹.

A word on the Kd: it is a measure of binding affinity in units of concentration. Read a high Kd as lower affinity. The koff is the rate constant with which the complex falls apart. The term kon denotes a measure of how fast the partners come together.
